Laboratory results reported in PMC11544243 (Nature Communications, 2024).

Assays:
Assay in all cases: SEC-MALS
[1] = target: Trx-EAT-17F (C. elegans) (UniProt S6F527)
[2] = target: MBP-BICD-1 CTF (C. elegans)
[3] = target: the molecule itself

MBP-BICD-1 CTF (domain or fragment)
stoichiometry N (BICD-1 CTF per EAT-17F (printed as 2:2)) [1]: 1
stoichiometry N [2]: 2

B1: Trx-EAT-17F (natural protein, C. elegans, UniProt S6F527-6 1-396, looked up)
chain: MNSDVHRKLEGAYETIRELSSARRDNIMDTGTQVDDTSMIEHIHSLQQELIEAHTRQADSENTLRDAKLRVSELEMANKRLLENEPSEDVAGLQEELISVKMREAESSLALKEMRQRLAELEQHWAKYVHVRAFDPSSASIEKESTSEAHSTQQQPSPPLTSARARLAKITASLIGGSTEETDNCISVRELEDQLMGVRIKEADTLAELKEMRQKVMELETQNHVCTNQLKRQDEEMKRVREDSEVLVKKRKELEDQLKDEKEKLDNKESEFNEGRINDRLKYSEAMQTIQDLQSSISQLELKKAEKWTQNQLRGSSVCDLDEESNSHGSICSNVDHLSLASDEMNALLADMTVRIPTLDDLAEEGSATETDELRPKELNDGNDTTDSGVQLSDSH
stoichiometry N [3]: 2
